Assay results taken from patent US20240076386A1 (Pfizer, published 2024).
Numbering of substitutions follows the chain as printed.

Key:
[1] = molecular target: T1, mouse E-selectin extracellular domain with 10 His purification tail (mouse, UniProt Q00690 22-557); test: AlphaLISA competition vs sialyl Lewis A-PAA-biotin
T1 construct: also called soluable mouse E-selectin extracellular domain; muE-Selctin
T1 sequence: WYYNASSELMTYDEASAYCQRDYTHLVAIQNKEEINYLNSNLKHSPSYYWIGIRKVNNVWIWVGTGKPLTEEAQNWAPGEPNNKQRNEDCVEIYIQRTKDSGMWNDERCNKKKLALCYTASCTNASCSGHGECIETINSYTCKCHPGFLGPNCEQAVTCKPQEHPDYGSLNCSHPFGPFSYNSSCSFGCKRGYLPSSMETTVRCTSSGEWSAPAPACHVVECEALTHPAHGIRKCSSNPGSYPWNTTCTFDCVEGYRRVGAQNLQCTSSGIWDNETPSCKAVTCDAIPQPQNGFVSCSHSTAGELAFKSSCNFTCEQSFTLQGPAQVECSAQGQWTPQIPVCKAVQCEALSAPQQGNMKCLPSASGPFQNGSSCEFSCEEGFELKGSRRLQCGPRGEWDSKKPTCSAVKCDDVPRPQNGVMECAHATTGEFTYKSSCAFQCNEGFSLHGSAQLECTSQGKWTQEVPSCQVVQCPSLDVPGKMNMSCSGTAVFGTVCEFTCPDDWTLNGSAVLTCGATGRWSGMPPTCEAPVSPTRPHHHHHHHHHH
Protocol: The neutralization ability of anti-E-selectin antibodies was measured in an AlphaLISA homogenous competition assay. […] This was incubated at room temperature for 15 minutes, followed by addition of 1.4 μL of human, mouse or cynomolgus monkey E-selectin added to a final concentration of 7 nM. This was again incubated at room temperature for 15 minutes. To this, 1.4 μL AlphaLISA beads was added (Ni-donor/SA-acceptor) for a final assay concentration of 10 μg/mL. This was incubated in the dark at room temperate for at least 10 hours. The plates were then read using the AlphaLISA protocol (Envision).

[2] = molecular target: T2, human E-selectin extracellular domain with 10 His purification tail (human, UniProt P16581 22-556); test: SPR, antibody captured, E-selectin analyte
T2 construct: also called soluable human E-selectin extracellular domain; rhE-Selectin
T2 sequence: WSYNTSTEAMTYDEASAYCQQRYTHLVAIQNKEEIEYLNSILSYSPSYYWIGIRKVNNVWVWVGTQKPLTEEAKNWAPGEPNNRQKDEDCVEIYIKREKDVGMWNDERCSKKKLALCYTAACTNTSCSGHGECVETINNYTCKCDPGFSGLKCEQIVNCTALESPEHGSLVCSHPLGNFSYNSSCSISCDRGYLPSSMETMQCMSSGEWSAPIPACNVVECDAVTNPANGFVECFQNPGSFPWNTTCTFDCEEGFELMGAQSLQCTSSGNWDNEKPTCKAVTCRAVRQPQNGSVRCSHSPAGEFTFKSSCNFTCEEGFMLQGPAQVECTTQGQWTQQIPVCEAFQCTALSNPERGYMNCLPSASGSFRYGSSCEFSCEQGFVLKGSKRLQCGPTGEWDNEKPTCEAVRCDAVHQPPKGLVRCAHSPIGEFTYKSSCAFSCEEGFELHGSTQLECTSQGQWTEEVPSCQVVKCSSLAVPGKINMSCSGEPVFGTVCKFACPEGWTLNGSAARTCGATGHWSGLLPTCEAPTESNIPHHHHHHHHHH
Protocol: To characterize binding of antibodies to human, cynomolgus monkey, and mouse E-selectin, an antibody was diluted to 0.5 μg/mL in HBS-EP+ and captured by the anti-human IgG immobilized on flow cells 2, 3 and 4 for 30 seconds to 1 minute at a flow rate of 10 μL/minute to achieve a capture level of 70 to 300 RU. Flow cell 1 was used as a reference surface. […] HBS-EP+ buffer cycles collected for each captured antibody were used for double-referencing (Myszka D G. J. Mol. Recognition 1999; 12(5):279-84). At the end of each cycle, the entire anti-IgG surface was regenerated by a 30 second pulse of 3 M MgCl₂ and a 30 second pulse of ionic buffer (1.83 M MgCl₂, 0.92 M Urea, 1.83 M Guanidine HCl, pH 7.4) (Andersson K. Analy. Chem. 1999; 71(13): 2475-81). Kinetic assays were conducted at 25° C. at a collection rate of 10 Hertz (Hz) on a BIAcore™ T200 instrument (GE Healthcare). Rate constants and affinities were determined by fitting the data to a 1:1 binding model in BIAcore™ T200 Evaluation software version 3.0 (GE Healthcare).

B1: anti-E-selectin antibody 0158 chimera (antibody, human IgG1, kappa, V domains shown)
VH: QVQLKESGPGLVQPSETLSLTCTVSGFSISTYNVHWLRQPPGKGLEWMGMMWSGGSPDYNSALKSRLSISRDTSKNQVFLKMNSLQSEDTTTYYCARWGGGFDYWGQGVMVTVSS
VL: DIVLTQSPTTLSVTPGETVSLSCRASHSIGTNLHWYQQKTNESPRLLIKFTSQSISGIPSRFSASGSGTDFTLNINNVEFDDVSSYFCQQTQSWPLTFGSGTKLEIKR
notes: rat VH/VL on effector-null human IgG1 and human kappa
B1 gave an EC50 [1] greater than 133 nM, a Kd [2] of 21.6 nM and a koff [2] of 0.00175 s⁻¹. For the same binder, the kon [2] was 81000 M⁻¹ s⁻¹ and the t½ [2] was 397 s.

B2: anti-E-selectin antibody 0159 chimera (antibody, human IgG1, kappa, V domains shown)
VH: EVQLQQSGAELGKPGTSVKLSCKVSGYNIRSTYMHWVSQRPGKGLEWIGRIDPANGNTIYAEKFKRKATLTADTSSNTAYMQLSQLKSDDRAIYFCAMEVRVSFEYWGQGVMVTVSS
VL: DIQMTQSPSFLSASVGDRVTINCKASQNINKYLDWYQQKLGEGPKLLIYYTNNLHTGIPSRFSGSGSGTDFTLTISSLQPEDVATYFCLQHDSGYTFGAGTKLELKR
notes: as for B1
With B2 the EC50 [1] was greater than 133 nM, the Kd [2] was 324 nM and the koff [2] was 0.0371 s⁻¹. For the same binder, the kon [2] was 115000 M⁻¹ s⁻¹ and the t½ [2] was 18.7 s.

B3: anti-E-selectin antibody 0170 chimera (antibody, human IgG1, kappa, V domains shown)
VH: EVQLQQSGAELGKPGTSVKLSCKVSGYSIRSTYMHWVNQRPGKGLEWVGRIDPANGNTIYAERFKNKATLTADTSSNTAYMQLSQLKSDDTAIYFCAVEILGIFDYWGQGVMVTVSS
VL: B2 VL with N30D, G43A, I48M, Y50N, N53S, D92N
notes: as for B1
In the case of B3, the EC50 [1] is reported as greater than 133 nM, the Kd [2] is reported as 628 nM and the koff [2] is reported as 0.0549 s⁻¹. It also gave a kon [2] of 87400 M⁻¹ s⁻¹ and a t½ [2] of 12.6 s.

B4: anti-E-selectin antibody 0180 chimera (antibody, human IgG1, kappa, V domains shown)
VH: EVQLQQSGAELGKPGTSVKLSCKVSGYKIRSSYMHWVNQRPGKGLEWIGRIDPANGNTIYGDKFKSKATLTSDTSSNTAYIQLSQLKSDDTAIYFCAIDIGTTFDYWGQGVMVTVSS
VL: DIQMTQSPSFLSASVGDRVTINCKASQHINRYLNWYQQKLGEAPKLLIYDANNLQTGIPSRFSGSGSGTDFTLTISSLQPEDVATYFCLQHNSWPNTFGAGTKLELKR
notes: as for B1
B4 gave an EC50 [1] greater than 133 nM, a Kd [2] of 2940 nM and a koff [2] of 0.666 s⁻¹. For the same binder, the kon [2] was 262000 M⁻¹ s⁻¹ and the t½ [2] was 1.05 s.

B5: anti-E-selectin antibody 0164 chimera (antibody, human IgG1, kappa, V domains shown)
VH: EVQLQQSGAEFGKPGTSVKLSCKVSGYNIRSSYMHWVNQRPGKGLEWIGRIDPANGNTIYAEKFKIKAILTADSSSNTAYMQLSQLKSDDTAIYFCAMDLYSTSEYWGQGVMVTVSS
VL: B4 VL with A25T, H28N, D50N, N53S, G64A, S76N, H91D, N96L, A100S, L106I
notes: as for B1
B5 gave an EC50 [1] greater than 133 nM, a Kd [2] of 54.4 nM and a koff [2] of 0.0113 s⁻¹. The kon [2] was 207000 M⁻¹ s⁻¹ and the t½ [2] was 61.6 s.

B6: anti-E-selectin antibody 0039 chimera (antibody, human IgG1, kappa, V domains shown)
VH: QVQLKETGPGLVQPTQTLSITCTVSGFSLTGYYMQWVRQTPGKGLEWMGFIRSSGSTEYNSEFKSRLSISRDTSKNQVFLKMNSLKTEDTGVYYCARCPYKYSSFVYVGVMDAWGQGAPVTVSS
VL: EIVMTQSPTSMSTSIGERVTLNCKASQTVGINVDWYQQTPGQPPKLLIYGASNRHTGVPDRFTGSGFGRDFTLTISNVEAEDLAVYCCLQYGSIPHTFGPGTKLELKR
notes: as for B1
With B6 the EC50 [1] was greater than 133 nM, the Kd [2] was 68 nM and the koff [2] was 0.00421 s⁻¹. The kon [2] was 64200 M⁻¹ s⁻¹ and the t½ [2] was 174 s.
